Test results published in article PMC4678855 (Nucleic Acids Research, 2015).

Tests used:
[1] = biological target: B. subtilis β-clamp, cysteine-modified variant (residues 1–380 including the added Ser379–Cys380 dipeptide) (B. subtilis) (UniProt P05649); test: SAXS
SAXS = biological target: the molecule itself; test: SAXS

B1: B. subtilis MutL C-terminal domain, inactive cysteine-modified variant (residues 433–627; E485C, C531S, C573S, C604S) (domain or fragment, UniProt P49850 433-627, looked up)
chain: SDRVPIMYPIGQMHGTYILAQNENGLYIIDQHAAQERIKYEYFREKVGEVEPCVQEMIVPLTFHYSTNEALIIEQHKQELESVGVFLESFGSNSYIVRSHPAWFPKGEEAELIEEIIQQVLDSKNIDIKKLREEAAIMMSSKGSIKANRHLRNDEIKALLDDLRSTSDPFTSPHGRPIIIHHSTYEMEKMFKRVM
For B1, the stoichiometry N [1] was 1 and the “stoichiometry N” value (SAXS) was 2.
